Data published in article PMC12375107 (Cell Death & Disease, 2025).

Target: T1, STING protein (SPR) (human, UniProt Q86WV6 1-379)
T1 construct: STING, protein injected as analyte; Probably the recombinant protein from E. coli of the GST pull-down
Assay: SPR; Biacore 8K; CAD captured on sensor chip CM5; STING injected at increasing concentrations for 2 min, dissociation 2 min in running buffer; equilibrium constants by the evaluation software
Conditions: both partners purified

T1 sequence (Q86WV6 whole entry): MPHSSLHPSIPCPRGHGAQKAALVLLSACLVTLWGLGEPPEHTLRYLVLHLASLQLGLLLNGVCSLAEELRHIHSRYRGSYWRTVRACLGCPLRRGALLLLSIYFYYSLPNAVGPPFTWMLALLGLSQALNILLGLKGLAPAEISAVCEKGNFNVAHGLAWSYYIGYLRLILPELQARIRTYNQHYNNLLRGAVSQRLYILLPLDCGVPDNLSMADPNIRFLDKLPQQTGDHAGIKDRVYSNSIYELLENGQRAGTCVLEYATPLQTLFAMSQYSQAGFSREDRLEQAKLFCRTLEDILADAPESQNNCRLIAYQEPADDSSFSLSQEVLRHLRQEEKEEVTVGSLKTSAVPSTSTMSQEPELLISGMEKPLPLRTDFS

Kd: 993 nM
B1: CAD protein (SPR) (enzyme, human, UniProt O76075 1-338, looked up)
chain: MLQKPKSVKLRALRSPRKFGVAGRSCQEVLRKGCLRFQLPERGSRLCLYEDGTELTEDYFPSVPDNAELVLLTLGQAWQGYVSDIRRFLSAFHEPQVGLIQAAQQLLCDEQAPQRQRLLADLLHNVSQNIAAETRAEDPPWFEGLESRFQSKSGYLRYSCESRIRSYLREVSSYPSTVGAEAQEEFLRVLGSMCQRLRSMQYNGSYFDRGAKGGSRLCTPEGWFSCQGPFDMDSCLSRHSINPYSNRESRILFSTWNLDHIIEKKRTIIPTLVEAIKEQDGREVDWEYFYGLLFTSENLKLVHIVCHKKTTHKLNCDPSRIYKPQTRLKRKQPVRKRQ
notes: Probably the recombinant protein from E. coli of the GST pull-down
